Reference: article doi:10.1101/2022.09.28.508705
One block for each substance: values may come before it.

Assays:
Assay in all cases: crystal structure
[1] = biological target: mVSG397 N-terminal domain (T. brucei brucei, strain Lister 427)
[2] = biological target: mVSG1954 N-terminal domain (T. brucei brucei, strain Lister 427)
[3] = biological target: mVSG531 N-terminal domain (T. brucei brucei, strain Lister 427)

stoichiometry N [1]: 2
Substance: mVSG397 N-terminal domain (domain or fragment)

stoichiometry N [2]: 3
Substance: mVSG1954 N-terminal domain (domain or fragment)

stoichiometry N [3]: 2
Substance: mVSG531 N-terminal domain (domain or fragment)
